The target of the series is HNF1A (rHNF1A) (UniProt P20823 1-631). Put plainly: EMSA; two complexes, complex 1 more abundant; abolished by 300x unlabeled probe; 12 mM Hepes pH 7.9, 60 mM KCl, 10% glycerol, 1 mM EDTA, 1 mM MgCl2, 1 mM DTT plus DNA mix (1 mM spermidine, 1 mM MgCl2), 1 ug poly(dG/dC)·poly(dG-dC), 4 C; probe 1.29 nM (0.52 nM in mutant titration); 6% PAGE, 0.5x TBE. To be noted: protein: ivt; chain copies: 2; label: 32P 5' end (T4 PNK). A general note: In EMSA bound probe runs differently from free probe, usually more slowly.
Sequence of HNF1A (rHNF1A) (P20823 whole entry): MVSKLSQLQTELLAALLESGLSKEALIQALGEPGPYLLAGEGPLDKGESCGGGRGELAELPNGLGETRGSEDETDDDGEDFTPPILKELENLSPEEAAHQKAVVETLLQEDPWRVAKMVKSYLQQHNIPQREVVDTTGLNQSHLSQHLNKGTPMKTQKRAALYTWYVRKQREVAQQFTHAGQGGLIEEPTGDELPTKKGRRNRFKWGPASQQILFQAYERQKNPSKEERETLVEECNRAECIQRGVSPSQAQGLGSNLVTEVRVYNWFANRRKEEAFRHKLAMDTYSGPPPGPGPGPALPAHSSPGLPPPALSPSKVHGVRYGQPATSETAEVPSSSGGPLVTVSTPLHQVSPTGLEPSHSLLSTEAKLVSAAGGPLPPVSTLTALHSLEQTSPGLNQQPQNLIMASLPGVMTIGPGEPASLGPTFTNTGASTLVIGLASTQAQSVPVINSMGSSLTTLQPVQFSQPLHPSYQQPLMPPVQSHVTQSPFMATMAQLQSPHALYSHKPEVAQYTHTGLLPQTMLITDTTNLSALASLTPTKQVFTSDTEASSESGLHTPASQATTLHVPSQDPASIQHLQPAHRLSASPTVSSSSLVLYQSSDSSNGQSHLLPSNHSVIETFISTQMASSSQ

B1: GLUT2 promoter HNF1A site (dsDNA)
DNA 1: CTCAGTAAAGATTAACCAT
DNA 2: ATGGTTAATCTTTACTGAG
Regarding B1, the binding result is on record as “binds”.

These data come from paper PMC5241209, “Identification and functional analysis of c.422_423InsT, a novel mutation of the HNF1A gene in a patient with diabetes”.
